In patent publication US20050152888A1:

Biological target: Rpn10 proteasome subunit C-terminally fused with Fpr1 (strain Rpn10-FPR1) (S. cerevisiae) (UniProt P38886)
Experiment: cell-based or functional assay

Sequence of Rpn10 proteasome subunit C-terminally fused with Fpr1 (strain Rpn10-FPR1) (S. cerevisiae) (P38886 other isoform, or with tags, fused parts or gaps): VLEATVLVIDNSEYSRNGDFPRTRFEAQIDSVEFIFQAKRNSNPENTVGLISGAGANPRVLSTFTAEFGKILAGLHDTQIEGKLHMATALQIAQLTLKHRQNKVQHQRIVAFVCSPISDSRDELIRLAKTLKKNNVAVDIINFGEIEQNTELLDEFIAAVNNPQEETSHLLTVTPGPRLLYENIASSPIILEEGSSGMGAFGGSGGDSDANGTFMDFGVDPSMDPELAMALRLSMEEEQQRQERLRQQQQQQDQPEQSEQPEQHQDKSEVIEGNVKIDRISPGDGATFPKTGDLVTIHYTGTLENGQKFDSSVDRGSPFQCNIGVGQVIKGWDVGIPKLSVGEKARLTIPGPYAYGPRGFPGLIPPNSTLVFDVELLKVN

HA epitope-tagged Tor-His3 purified from a bacterial expression system (PROTet.e133-TOR-link-HIS3HA) (from UniProt P35169 1883-2078; P06633 1-220)
half-life of reporter degradation in vitro with purified proteasomes and rapamycin (anti-HA Western): 15 min
